Source: paper PMC6328183 (2019)

Molecular target: FuBc protein (recombinant protein of the fusion loop and Bc loop of domain II of dengue envelope protein with … (DENV-2 (of the template structure PDB …, UniProt P12823)))
Test: SPR

B1: 3IXY scFv antibody (VH and VL of the anti-fusion loop dengue E53 Fab, PDB 3IXY, joined by a (G4S)3 linker) (scFv, V domains shown)
VH: EVKLVESGGGLVLPGGSLRLSCATSGFTFTDYYMTWVRQPPGKALEWLGFIGNKANDYTTEYSASVKGRFTISRDDSQSILYLQMSTLRAEDRATYYCATVYGNYPYFDVWGAGTTVAVSS
VL: QIVLTQSPAIMSASPGEKVTMTCSASSSVSYMHWYQQKSGTSPKIWIYESSKLASGVPVRFSGSGSGTSYSLTISSMEAEDVATYYCQQWSSHPHPLTFGAGTKLELK
koff: 0.0077 s⁻¹
